This experiment deals with T1, human tumour necrosis factor alpha (TNFα) (human, UniProt P01375 77-233).
T1 construct: also called human TNF; recombinant human TNFα
In words: affinity; method not named at the sentence (BiaCore with captured hTNF40 and human TNF in flow is described at paragraph 169). The source says:
Following the injection of ligand, buffer was passed over the surface so that the dissociation could be measured.

T1 sequence (P01375 77-233 limits assumed): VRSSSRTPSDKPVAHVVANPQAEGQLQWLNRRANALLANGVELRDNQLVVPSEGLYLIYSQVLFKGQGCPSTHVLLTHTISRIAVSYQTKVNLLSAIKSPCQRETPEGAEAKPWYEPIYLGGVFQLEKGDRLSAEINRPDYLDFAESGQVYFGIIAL

B1: mouse monoclonal antibody hTNF40 (antibody, IgG2a, V domains shown)
VH: QIQLVQSGPELKKPGETVKISCKASGYVFTDYGMNWVKQAPGKAFKWMGWINTYIGEPIYVDDFKGRFAFSLETSASTAFLQINNLKNEDTATYFCARGYRSYAMDYWGQGTSVTVSS
VL: DIVMTQSQKFMSTSVGDRVSVTCKASQNVGTNVAWYQQKPGQSPKALIYSASFLYSGVPYRFTGSGSGTDFTLTISTVQSEDLAEYFCQQYNIYPLTFGAGTKLELKR
notes: The light chain constant region is kappa and the heavy chain constant region is IgG2a (mouse); also called murine hTNF40; the donor antibody
What is called Kd is the free concentration of one partner at which half of the binding sites on the other are occupied at equilibrium, for simple one-to-one binding. Take B1: the dissociation constant (Kd) is about 0.085 nM.

(Values after patent publication US20020151682A1 (UCB, published 2002).)
